The results in this text go back to patent publication US20240287189A1 (SPARX BIOSCIENCE, published 2024).

In assay [1] the target is PDL1 on PDL1 aAPC/CHOK1 cells (UniProt Q9NZQ7 19-290, limits assumed). The experiment in a line: cell-based or functional assay.
Assay [2] deals with T1, PDL1 expressed on MDA MB-231 human breast cancer cells (human, UniProt Q9NZQ7 19-290).
T1 construct: whole, on cells; also called MDA MB-231 cells
Briefly: flow cytometry on MDA MB-231 cells, anti-human IgG Fc secondary antibody.

Assay [3] deals with T2, human PD-L1 (recombinant protein, coated and in solution in the phage ELISA) (human, UniProt Q9NZQ7 19-239).
T2 construct: It is probably the same Met1-Thr239 extracellular segment that was used for selection; also called CD274; B7 homolog 1
Briefly: competitive phage ELISA, ratio to 12A4 parent clone.

Assay [4] addresses T2, human PD-L1 (recombinant protein, …). The experiment in a line: competitive phage ELISA, Fab on phage, soluble PD-L1 against coated PD-L1.

B1: anti-PDL1 monoclonal antibody 12A4bad (antibody, V domains shown)
VH: QVQLVQSGAEVKKPGSSVKVSCKTSGDTFSTYAISWVRQAPGQGLEWMGGIIPLFGKAHYAQKFQGRVTITADESTSTAYMELSSLRSEDTAVYFCARKFHFVRGSPFGMDVWGQGTTVTVSS
VL: EIVLTQSPATLSLSPGERATLSCRASQSVSSYLAWYQQKPGQAPRLLIYDASNRAPGIPARFSGSGSGTDFTLTISSLEPEDFAVYYCQQRSNWPTFGQGTKVEIK
notes: also called PDL1 antibody 12A4bad
Consider B1, for which the “EC50, luminescent signal in PDL1/PD1 blockage bioassay” value in assay [1] amounted to 0.344 nM. This molecule also showed a Kd in assay [2] of 0.0778 nM.

B2: 12A4b Fab displayed on phage (Fab, V domains shown)
VH: QVQLVQSGAEVKKPGSSVKVSCKTSGDTFSTYAISWVRQAPGQGLEWMGGIIPIFGKAHYAQKFQGRVTITADESTSTAYMELSSLRSEDTAVYFCARKFHFVRGSPFGMDVWGQGTTVTVSS
VL: not shown
As for B2, in assay [3], the “Improvement from 12A4 Parent Clone” value was found to be 3.3 fold.

B3: 12A4a Fab displayed on phage (Fab, V domains shown)
VH: QVQLVQSGAEVKKPGSSVKVSCKTSGDTFSTYAISWVRQAPGQGLEWMGGIIPIFGKAHYAQKFQGRVTITADESTSTAYMELSSLRSEDTAVYFCARKFHFVSGSPFGMDVWGQGTTVTVSS
VL: EIVLTQSPATLSLSPGERATLSCRASQSVSSYLAWYQQKPGQAPRLLIYDASNRAPGIPARFSGSGSGTDFTLTISSLEPEDFAVYYCQQRSNWPTFGQGTKVEIK
Take B3: the Kd in assay [4] amounted to 8.3 nM. Moreover, the “Improvement from 12A4 Parent Clone” value in assay [3] is 1.3 fold.

B4: 12A4bad Fab displayed on phage (Fab, V domains shown)
VH: QVQLVQSGAEVKKPGSSVKVSCKTSGDTFSTYAISWVRQAPGQGLEWMGGIIPLFGKAHYAQKFQGRVTITADESTSTAYMELSSLRSEDTAVYFCARKFHFVRGSPFGMDVWGQGTTVTVSS
VL: EIVLTQSPATLSLSPGERATLSCRASQSVSSYLAWYQQKPGQAPRLLIYDASNRAPGIPARFSGSGSGTDFTLTISSLEPEDFAVYYCQQRSNWPTFGQGTKVEIK
Turning to B4, the Kd in assay [4] turned out to be 1.5 nM. Further, in assay [3], the “Improvement from 12A4 Parent Clone” value turned out to be 7.5 fold.

B5: 12A4ad Fab displayed on phage (Fab, V domains shown)
VH: QVQLVQSGAEVKKPGSSVKVSCKTSGDTFSTYAISWVRQAPGQGLEWMGGIIPLFGKAHYAQKFQGRVTITADESTSTAYMELSSLRSEDTAVYFCARKFHFVSGSPFGMDVWGQGTTVTVSS
VL: EIVLTQSPATLSLSPGERATLSCRASQSVSSYLAWYQQKPGQAPRLLIYDASNRAPGIPARFSGSGSGTDFTLTISSLEPEDFAVYYCQQRSNWPTFGQGTKVEIK
With B5, in assay [4], the Kd is 5 nM.

B6: 12A4bd Fab displayed on phage (Fab, V domains shown)
VH: QVQLVQSGAEVKKPGSSVKVSCKTSGDTFSTYAISWVRQAPGQGLEWMGGIIPLFGKAHYAQKFQGRVTITADESTSTAYMELSSLRSEDTAVYFCARKFHFVRGSPFGMDVWGQGTTVTVSS
VL: not shown
B6: in assay [4], the dissociation constant Kd was determined as 1.8 nM. Also, the “Improvement from 12A4 Parent Clone” value in assay [3] came to 6.3 fold.
